We go through one substance from publication doi:10.1101/2023.12.05.570295.

The target in this experiment is mKate2-K67R/R197H, named Diogenes.

With mKate2-K67R/R197H, named Diogenes, the OSER assay in live HeLa cells (CytERM fusion): whorl-free cells turned out to be 87%.
